Results as given in the supplement of paper PMC9233669.
Variants at the floor of the assay were thinned out.

What was measured:
biotinyl-Phe-oxazolone = assay: self-aminoacylation, catalytic enhancement (BFO) (fold over background); higher = more active; k-Seq, kA / k0A0; sequences stand for … in GGGAAUGGAUCCACAUCUACGAAUUC…UUCACUGCAGACUUGACGAAGCUG
How it was run: (§1)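 Mutagenized RNA pools with a 21-nt variable region (0.43 μM) reacted with each biotinyl-aminoacyl-oxazolone at 2–1250 μM. Reactions ran in 50 μL HEPES/NaCl/KCl/MgCl2/CaCl2 buffer with 5% acetonitrile, pH 6.9–7.0, for 90 minutes at room temperature. Streptavidin-captured RNA was quantified by triplicate qPCR and Illumina sequencing, and per-sequence fraction reacted was fit to a pseudo-first-order model with 1000 bootstraps. Catalytic enhancement is median kA divided by the uncatalyzed rate, the low-activity peak of a bimodal Gaussian fit.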

biotinyl-Trp-oxazolone = assay: self-aminoacylation, catalytic enhancement (BWO) (fold over background); higher = more active; k-Seq, kA / k0A0; sequences stand for … in GGGAAUGGAUCCACAUCUACGAAUUC…UUCACUGCAGACUUGACGAAGCUG
How it was run: as §1

Row | Sequence | self-aminoacylation (biotinyl-Phe-oxazolone) | self-aminoacylation (biotinyl-Trp-oxazolone)
1 | AAAUUUGCUAAUAGUCGUAAG [Fam3.1 aminoacylation ribozyme variant] | 10.3 | 4.02
2 | AAGUAUGCUAAUAGUCACAAG [Fam3.1 aminoacylation ribozyme variant] | 9.66 | 3.36
3 | AAGUGUGCUAAUAGUCACAAG [Fam3.1 aminoacylation ribozyme variant] | 6.87 | 3.91
4 | AAGUUUACUAAUUGUCGCAAG [Fam3.1 aminoacylation ribozyme variant] | 2.6 | 2
5 | AAGUUUGCAAAUAGUCGCCAG [Fam3.1 aminoacylation ribozyme variant] | 2.38 | 2.05
6 | AAGUUUGCUAACAGUCGUAAG [Fam3.1 aminoacylation ribozyme variant] | 27.2 | 7.81
7 | AAGUUUGCUAUUAGUCGCGAG [Fam3.1 aminoacylation ribozyme variant] | 4.31 | 2.3
8 | AAGUUUUCUAAAAGUCGCAAG [Fam3.1 aminoacylation ribozyme variant] | 2.92 | 2.01
9 | AAUACCCUGGUCAUCGAGUGC [Fam2.1 aminoacylation ribozyme variant] | 3.36 | 2.03
10 | AAUUUUGCUAAUAGUCGCAAG [Fam3.1 aminoacylation ribozyme variant] | 5 | 2.43
11 | ACACACUUCAAGGAAUCGGUC [Fam1B.1 aminoacylation ribozyme variant] | 3.08 | 2.96
12 | ACACAGUUCAAGCAAUCGGUC [Fam1B.1 aminoacylation ribozyme variant] | 3.76 | 3.46
13 | ACGCACUUCAAGCAAUCGGUC [Fam1B.1 aminoacylation ribozyme variant] | 33.8 | 19.9
14 | AGGUUUGCUAAUAGUCACAAG [Fam3.1 aminoacylation ribozyme variant] | 9.69 | 2.76
15 | AGGUUUGCUCAUAGUCGCAAG [Fam3.1 aminoacylation ribozyme variant] | 2.95 | 2.45
16 | AUACUUCAAACAAUCGGUCUU [Fam1A.1 aminoacylation ribozyme variant] | 6.84 | 4.01

Row | Sequence | self-aminoacylation (biotinyl-Phe-oxazolone) | self-aminoacylation (biotinyl-Trp-oxazolone)
17 | AUACUUCAACCAAUCGGUCUG [Fam1A.1 aminoacylation ribozyme variant] | 5.09 | 4.18
18 | AUAGUUCAAACAAUCGGUCUG [Fam1A.1 aminoacylation ribozyme variant] | 4.05 | 3.06
19 | AUUACCCUGGCCAUCGAGUAA [Fam2.1 aminoacylation ribozyme variant] | 3.72 | 2.74
20 | AUUACGCUGCUCAUCGAGUGA [Fam2.1 aminoacylation ribozyme variant] |  | 2.69
21 | AUUAGCCUGGUCGUCGAGUGA [Fam2.1 aminoacylation ribozyme variant] | 7.67 | 2.09
22 | CAACUUCAAACAAUCGCUCUG [Fam1A.1 aminoacylation ribozyme variant] | 3.06 | 2.41
23 | CAACUUCAAACAAUCGGUCUA [Fam1A.1 aminoacylation ribozyme variant] | 26.4 | 13.9
24 | CAGUUUGCUAAUAGUCGUAAG [Fam3.1 aminoacylation ribozyme variant] | 5.91 | 2.28
25 | CCAAACUUCAAGCAAUCAGUC [Fam1B.1 aminoacylation ribozyme variant] | 9.55 | 3.03
26 | CCACACGUCAAGCAAUCGGCC [Fam1B.1 aminoacylation ribozyme variant] | 3.91 | 2
27 | CCACACUCCAGGCAAUCGGUC [Fam1B.1 aminoacylation ribozyme variant] |  | 2.04
28 | CCACACUUCAAACGAUCGGUC [Fam1B.1 aminoacylation ribozyme variant] | 3.66 | 4.08
29 | CCACACUUCAAGAAAUCGGUC [Fam1B.1 aminoacylation ribozyme variant] | 10.8 | 6.66
30 | CCACACUUCAAGAAAUCGGUU [Fam1B.1 aminoacylation ribozyme variant] |  | 2.03
31 | CCACACUUCAAGCAAUCAGUC [Fam1B.1 aminoacylation ribozyme variant] | 21.5 | 6.45
